The labels stand for the following.
B1: PTV A (nucleic acid)
DNA: ACTAGTCCTTGGACTTTTGTTGTGTTTAAACACAGAAATTTAATTACCTGGCCATGAATTCATTGGATTAACCCTTCTGAAAGACTTGCTCTGGCGCGAGCTAAAGCGCAATTGTCACCAGGTATTGCACCAGTGGTGGCGACAGGGTACAGAAGAGCAAGTACTCCTGACCGGGCAATGGGACTGCATTGCATATCCCTAGGCACCTATTGAGATTTCTCTGGGGCCCACCGGCGTGGAGTTCCTGTATGGGAATGCAGGACTGGACTTGTGCTGCCTGACAGGGTCGCGGCTGGCCGTCTGTACTTTGTATAGTCAGTTGAAACTCACC
modifications: Teschovirus A
B2: SVV (nucleic acid)
DNA: CTGGGCCCTCATGCCCAGTCCTTCCTTTCCCCTTCCGGGGGGTAAACCGGCTGTGTTTGCTAGAGGCACAGAGGAGCAACATCCAACCTGCTTTTGTGGGGAACGGTGCGGCTCCAATTCCTGCGTCGCCAAAGGTGTTAGCGCACCCAAACGGCGCATCTACCAATGCTATTGGTGTGGTCTGCGAGTTCTAGCCTACTCGTTTCTCCCCTATCCACTCACTCACGCACAAAAAGTGTGCTGTAATTACAAGATTTAGCCCTCGCACGAGATGTGCGATAACCGCAAGATTGACTCAAGCGCGGAAAGCGCTGTAACCACATGCTGTTAGTCCCTTCATGGCTGCGAGATGGCTATCCACCTCGGATCACTGAACTGGAGCTCGACCCTCCTTAGTAAGGGAACCGAGAGGCCTTCTTGCAACAAGCTCCGACACAGAGTCCACGTGATTGCTACCACCATGAGTACATGGTTCTCCCCTCTCGACCCAGGACTTCTTTTTGAATATCCACGGCTCGATCCAGAGGGTGGGGCATGATCCCCCTAGCATAGCGAGCTACAGCGGGAACTGTAGCTAGGCCTTAGCGTGCCTTGGATACTGCCTGATAGGGCGACGGCCTAGTCGTGTCGGTTCTATAGGTAGCACATACAAAT
B3: Malagasivirus B (nucleic acid)
DNA: CTTTATTTTCTTATGTAACTCTTCTTTTTAAGTTTTATTTTGCCTACTTGTGAGCTTATGCGGGACCACTGTCTTAGACAACCCCACATTTGTCATGAGTAAGTACACGCAACCATTACGATTACTTTTTAACCGTCTGACCTTTTGATAACAACTGAAGTTAGGCGTGAAACATGCATTTATACCAAAGTAGCCCCGCATTTCCCCACTACGGTGGGGGGGCTACCCTACTGGCTTTGGAACTGTAGCCATTATGTGTTGCCTGGCTTTCAGGATCTCACAACACAACAGTTCTCTCACAATGGAATATGGGTGAGATTGCAGTGACATGAACAAGTATCTAGTAGTACATAGACTCAAGCCTAGTTGCCTGCGGAACAACATGTGGTAACACATGCCCCAGGGTCCAAAAGACAAGGGTTAACAGCCCCTTCTAGGTGTCTGTGTGTGAAGAATACTTTAGTAGTGTTGTTATGATCTCACCTGTTAGTACAGAATGAGTATGGCTTGGTGAAGGATGTCCTACAGGTACCCATTATATGGATCTGAGTAGGAGACCACTAGTGGTGGCTTTACCGCCAGGTGAGTGGTTTAAAAAGCGTCTAGCCAAGCCAACAGCACTAGGGATAGTGCTTTCTATATTTTATATTTTCAGTGTAT
modifications: Malagasivirus B
B4: Cosavirus A SH1 (nucleic acid)
DNA: CCGTGCTTTACACGGTTTTTGAACCCCACACCGGCTGTTTGGCGCTTGCAGGACAGCAGGTTTATTTTCTTATGCTCTTTATTTCTAGCCAACAGGGTTCTATCCTGTTGGGCGGAGTGATACTCCCGTTCCTTCTTGGACAGATTGCCTCCACGATCTTTGTGGATCTCAAGGTGATCAAGTCACTGGTAAATAGAGCGAAGGTTGAGGAAACCTGAGGAATTTCCATGTGGTTTTGCCAGGAGTTGTAGCGATGCTGTGTGTGTGTGCGGATTTCCCCTCATGGCAACATGAGCCTCACAGGCCAAAAGCCCTGTCCGAAAGGACCCACACAGTGGAGCAATCCCAGCTCCCTCCTACAAAGCTTTGTGAGAATGAACTCACGTTTATTCTTCTTTATTCTCTGTTTACATCAGGCCCCAAAGATGTCCTGAAGGTACCTTGTGTATCTGGGCATGAGCACCATCAACTACCCGGACTTGCATTTCGGTGCAGACACATGTGGTTACCCAGCCCCTCTGCTTTGGCAGAGGGGCTTTTGCTCGCTCAGCACGAGATCTGATCAGGAGCCCTTCCCAGTGTGCTTTACACCTGGCGGGGGGTTAAAAATTGCCCAAGGCCTGGCAAAATAACCTAGGGGACTAGGTTTTCCTTTTATTAACAATGTCTGTCATT
modifications: Cosavirus A
B5: Cosavirus B1 (nucleic acid, listed as Cosavirus sp.)
DNA: CGTGCTTTACACGGTTTTTGAACCCCACACCGGCTGTTTGGCGCTTGCAGGACAGCAGGTTTATTTTCTTTTAACTCTCTCTTTCTAGCCACACACGATCTATGTGTGTGGGCGGAGTGATACTCCCGTTCCTTCTTGGACAGGCGGCCTCCACGCCCTTTGTGGATCTTAAGGCTACCAAGTCACTGGTGTTGGAAAGTGAAGAGAAAGGAGTTCCTTGGGAACTACATGTGGCATTGACAGAGGTTGTAGCGATGCTGTGTGTGTGTGCGGATTACCCCCGTGGCGACACGGACCCCACAGGCCAAAAGCCCTGTCCGAAAGGACCCACACAGTGGAGCAACCCCAGCTCCCCTCTTCAATGTTTTGTGTTAGCAACCTTGGTATTATTTTCTCTCAAGCTTCCAATACACCGGGCCCCAAAGATGTCCTGAAGGTACCCCGTGTATCTGAGGATGAGCACCATCAACTACCCGGACTTGTTCTTTCGAGAACAGACGCATGTGGTAACCCAGCCCCGATCCTAAGGGGTCGGGGCTTTTGCTCACTCAGCACAGGATCTGATCAGGAGACCTCCCCCCCCTGCTTTACAGGGGGCGGGGGTTTAAAAATTGCCCAAGGCCTGGCAAATAACCTAGGGGACTAGGTTTTCCTTTTTATTTTAAAGTTGTCAAT
B6: REV A (nucleic acid, listed as Reticuloendotheliosis virus)
DNA: GGGGTCGCCGTCCTACACATTGTTGTGACGTGCGGCCCAGATTCGAATCTGTAATAAAAGCTTTTTCTTCTATATCCTCAGATTGGCAGTGAGAGGAGATTTTGTTCGTGGTGTTGGCTGGCCTACTGGGTGGGGTAGGGATCCGGACTGAATCCGTAGTATTTCGGTACAACATTTGGGGGCTCGTCCGGGATTCCTCCCCATCGGCAGAGGTGCCTACTGTTTCTTCGAACTCCGGCGCCGGTAAGTAAGTACTTGATTTTGGTACCTCGCGAGGGTTTGGGAGGATCGGAGTGGCGGGACGCTGCCGGGAAGCTCCACCTCCGCTCAGCAGGGGACGCCCTGGTCTGAGCTCTGTGGTATCTGATTGTTGTTGAACCGTCTCTAAGACGGTGATACTATAAGTCGTGGTTTGTGTGTTTGTTTGTTACCTTGTGTTTGTTCGTCACTTGTCGACAGCGCCCTGCGAATTGGTGTACCCACACCGCGCGGCTTGCGAATAATACTTTGGAGAGTCTTTTGCCTCCAGTGTCTTCCGTTTGTACTCGTCCTCCTCTCCCTCTCCGGCCGGGATGGG
B7: Tottorivirus (nucleic acid, listed as Tottorivirus sp.)
DNA: CCCCTTTACGTAACTGCAACTTAAAGAGTACCCTACTGCATTGGATGTGTGGTAAACTTTTACGCACACATTTGTAGTAGTGTTAGTTATGTTCTACCTAATGAGTATGCATGCACCCGTCGAAACACGCTTGTGATAAGATAGGTGAGTCCATGTGACTAATCTCATTAAGATAAATAAGCACCCTACAACGCACGGCACGCTCGTGTCTTCCGTGCGGGGCCGGGACAACAGCGGCCTAAATCTTCTAGGTGACCACCATGCTTTTGGGACTATGGCACCACTGTGGACGTGAGTACCTGGCAGTAAGTCTGTGAAAAGATGGAAGGTGTCCCAAGCTATGGGGCGTATGCATATAGCCTGCGGAACAAACAACGGCGACGTTGTCCCCAGGGCCCAAAAGGCACGTGGATAAGATCCACCTATATGTTTACCCCATAGTGTAAGTCACTGGAAGTCCTAGTAATGGATGTCTGGAGTAAGGCTCACGGGGTAGGGCGAAGGATGCCCAGAAGGTACCCGTAGGTAACCTTAAGAGACTATGGATCTGATCTGGGGACCGGATGGCGCCATCACCATGACGTGGAGGCCGGTTTAAAAAACGTCTAAGCCCGACCAACAACCTAGGGGACTAGGTTTTCCTTTTTTATTCATGTATGACGTT
B8: Mosavirus A2 SZAL6 (nucleic acid, listed as Mosavirus sp.)
DNA: CCCCCCCCTCAAATTGCAACGATATAGCTAATGGCGAGATTGAGATGCTATATCACCTCTTCTAAGTTATAGACCTCATCTGATTGATAAGGACGTAATTTGGTCGAAACCGCTTGGAATAAGACCGATGCGCGTAGTCATGATGATGATGTAAGATCTAGGAACTTATCCAATCTGCTTATGTCTATGTAAGTAGAGGGGCAGGCCTCATTGCCCTAATTCTTTCTACCGAGTATCTGCTAGGGTTTCTAGCGGCTTGAATACTTGGATTGAGGGATACAAGATACTACTGATCGATTGTCGATTGGGAAACTTGTAGATACTTCAAAGCTACCAGTAGCGTGGACTCACAGCCAGCGGACTACCCCTCATGGTAACATGAGCCTCTGGGCCCACAAGGCACGTCGCAAGACCTGTGAGACGGCAACCCCAGCCTAGCTTTGTTGAGGAAACAAGCGATAACATGACATGAGAGACCGGAAGGATTCTTGTATTGTGAGCCGAAGGATGGCCTCTAGGTACCTCATTTTATGAGATCTGAGGAGGTGCTCTTGAGTTGGTGCTTTACACTGACAACACAGAGTTAAAAAGCGTCTAAGCTCACCCGGAAATTGGGAAATTTCCGTTATTTCCATTTTGTTTGCAAAGTCGTTC
B9: PTV B (nucleic acid)
DNA: CTTCCTTTTAATTCGTAACTGATAAGTGATAGTCCTTGGAAGCTAGGTATTTGTTACGCTAGTTTTGGATTATCTTGTGCCCAACATTTGTTTTCGAACATATGTTGTGTTTAAACACAGAAATCTAGTTTCTTTGGTTATGAGTTTAATGGAATATCCTTTTGAAAGACTTGCCTTGGCGCGGGCTAGAGCGCAATTGTCACCAGGTATTGCACCAATGGTGGCGACAGGGTACAGAAGAGCAAGTACTCCTGACTGGGTAATGGGACTGCATTGCATATCCCTAGGCATCTATTGAGATTTCTCTGGAGCCCACCAGCATGGAGTTCCTGTATGGGAATGCAGGACTGGACTTGTGCTGCCTGACAGGGTCGCGGCTGGCCGTCTGTACTTTGTATAGTCAGTTGAAACTCATT
modifications: Teschovirus B

In this series the test system is HEK293 cells. The class given is cell-based, human. Conditions: luminescence from secreted Gluc in supernatant 24 hours after transfection of HEK293 cells; circular RNA encoding Gluc with the named IRES (UTR truncated to 675 nt).
For the molecule B1, the Expression is recorded as 7.29E+05. The molecule B2 showed an Expression of 1.06E+06.

For B3, the Expression is given as 5.05E+06. The molecule B4 had an Expression of 2.16E+06. As for B5, the figure is 1.91E+06; as for B6, 9.44E+04; as for B7, 2.76E+07. For the molecule B8, the Expression stood at 8.27E+06. B9 registered an Expression of 6.02E+06.
